The nature of this data set: soluble on expression in E. coli; label from the status in PepcDB or PDB records.
Regarding “MEYEWKPDEQGLQQILQLLKESQSPDTTIQRTVQQKLEQLNQYPDFNNYLIFVLTKLKSEDEPTRSLSGLILKNNVKAHFQNFPNGVTDFIKSECLNNIGDSSPLIRATVGILITTIASKGELQNWPDLLPKLCSLLDSEDYNTCEGAFGALQKICEDSAEILDSDVLDRPLNIMIPKFLQFFKHSSPKIRSHAVACVNQFIISRTQALMLHIDSFTENLFALAGDEEPEVRKNVCRALVMLLEVRMDRLLPHMHNIVEYMLQRTQDQDENVALEACEFWLTLAEQPICKDVLVRHLPKLIPVLVNGMKYSDIDIILLKGDVEEDETIPDSEQDIRPRFHRSRTVAQQHDEDGIEEEDDDDDEIDDDDTISDWNLRKCSAAALDVLANVYRDELLPHILPLLKELLFHHEWVVKESGILVLGAIAEGCMQGMIPYLPELIPHLIQCLSDKKALVRSITCWTLSRYAHWVVSQPPDTYLKPLMTELLKRILDSNKRVQEAACSAFATLEEEACTELVPYLAYILDTLVFAFSKYQHKNLLILYDAIGTLADSVGHHLNKPEYIQMLMPPLIQKWNMLKDEDKDLFPLLECLSSVATALQSGFLPYCEPVYQRCVNLVQKTLAQAMLNNAQPDQYEAPDKDFMIVALDLLSGLAEGLGGNIEQLVARSNILTLMYQCMQDKMPEVRQSSFALLGDLTKACFQHVKPCIADFMPILGTNLNPEFISVCNNATWAIGEISIQMGIEMQPYIPMVLHQLVEIINRPNTPKTLLENTAITIGRLGYVCPQEVAPMLQQFIRPWCTSLRNIRDNEEKDSAFRGICTMISVNPSGVIQDFIFFCDAVASWINPKDDLRDMFCKILHGFKNQVGDENWRRFSDQFPLPLKERLAAFYGV”, the “soluble on expression in E. coli” value is reported as “soluble”.
Regarding “MKKDIILSGVGGQGILSIATVIGKAALKDGLYMKQAEVHGMSQRGGDVQSNLRISDQPIASDLIPSGKCDLIISLEPMEGLRYLPYLGHEGWLVTNETPFVNIPNYPAESDVMAEINKLPHKVVLNVDKVAKELGSTRVANIVLLGATIPFLGIDYEKIQDSIREIFQRKGDAIVELNLKALAAGKEIAEK”, the “soluble on expression in E. coli” value is recorded as “soluble”.
Then “MLVLNPFSEKAVSPEDRDMVLRRGIAALDCSWKKVKKSSVIFQTARNHRSLPFLVAANPTNYGKPCILSTAEAVAATLYIVGLKDIASDIMSYFKWGPHFLDLNRELLEAYSRAENSLEVVEIQKKFIGGLEHHHHHH”, with “soluble”.
For “MGSDKIHHHHHHMTLSEYLQQLTQFKTIEELWRAHVQQMSRYGFDRLLYGYTLFKTRTSLGDPDDFVILTNHCPEYLQGFLADGLYAHAPMLTWALENEGHASWRVSQEMAAQGLLDKQARKVQDFNQSMGVHAGYTISFNSASERFKGAISLAARADLDQDGIDQIWAEHGADIVLMNNVAHLKILTLPYHAPKRGLTKRQREVLQWVGDGKTTQDIALLMGLTPATIEKHLRLARATLSVETTAQAVLKAALHNQMYAVEH”, the “soluble on expression in E. coli” value is reported as “not soluble”.
As to “LLFLSRERGPSQSTPSLISSAAPTMIKMEVNGHGKAMALGEGPPLPAGVQVPAGPQTVMGPGLAPMLAPPPRRTPKQHNCQSCGKTFSSASALQIHERTHTGEKPFGCTICGRAFTTKGNLKVHMGTHMWNNAPARRG”, the “soluble on expression in E. coli” value is “soluble”.
“MAVEEFNQNLNEIMKFKECNITVDTCVVIDGRITELISDGTIEKCTIIVPEAVISELEAQANKGREIGYFGIEELKKLVKVAKENEMVLEYYGERPSTGEVSLAKAGEIDAMIRKVAKDTNSILFTSDRIQYNLAIAQNINAHFLKVHEEKVDLKLV”: the “soluble on expression in E. coli” value is “not soluble”.
Regarding “MSLKNKLQVKIPGKLYVAGEYAVVESGHTAILTAVNRYITLTLEDSERNELWIPHYENPVSWPIGGELKPDGEHWTFTAEAINIATTFLKSEGIELTPVKMVIETELIDQSGAKYGLGSSAAATVAVINALMTKFYPEISMLKKFKLAALSHLVVQGNGSCGDIASCMYGGWIAYTTFDQEWVKHRLAYKSLEWFMKEPWPMLQIETLEEPVPTFSVGWTGTPVSTGKLVSQIHAFKQEDSKNYQHFLTRNNEIMKQIIQAFHTKDEELLYSSIKENRRILQELGTKAGVNIETSLLKELADSAENMGGAGKSSGSGGGDCGIAFSKTKELAEKLVNEWEKLGIKHLPFHTGRVQITEGHHHHHH”, the “soluble on expression in E. coli” value is “soluble”.
Then “MIKPVGSDELKPLFVYDPEEHHKLSHEAESLPSVVISSQAAGNAVMMGAGYFSPLQGFMNVADAMGAAEKMTLSDGSFFPVPVLCLLENTDAIGDAKRIALRDPNVEGNPVLAVMDIEAIEEVSDEQMAVMTDKVYRTTDMDHIGVKTFNSQGRVAVSGPIQVLNFSYFQADFPDTFRTAVEIRNEIKEHGWSKVVAFQTRNPMHRAHEELCRMAMESLDADGVVVHMLLGKLKKGDIPAPVRDAAIRTMAEVYFPPNTVMVTGYGFDMLYAGPREAVLHAYFRQNMGATHFIIGRDHAGVGDYYGAFDAQTIFDDEVPEGAMEIEIFRADHTAYSKKLNKIVMMRDVPDHTKEDFVLLSGTKVREMLGQGIAPPPEFSRPEVAKILMDYYQSINS”, with “soluble”; and “MAVNPATGKSDFVMMSEQQELGMGARYNQEILKQFPRYNDEKLQAYVQRVGERVARSSHRSNLQYHFTVIDSPDINAFALPGGYIYIHRGLIAYLGSEAELAAVLGHEVGHVTARHSVRQQSQASAWNILGQAVAIGTGVGAAGDLANVLGTAFVRGYGRDMELEADGLGAQYLARAGYDPTAMIQVVRVLKNQEDFAREEAARNGQAVQAGGYHGLFDTHPDNDRRLQEVVGPARQLANGQQEVGREVFLRHLEGMPFGDSASAGVRRGQNFYHAELDFTLSYPAGWKILNQPSALLGYPADEQSFIGMKLVPHDSRLTPAEFLRKNAGQRLAQEESLKQAGLNGYTAVVPGNPARRVAVIYQGDRAYLFVGVVKVGSLETQDDRFLSVIRSFRPLRDKERALAQPRRLHLVQVKAGQTLEQLAAGGEGSLSDSVARLRLLNDLYPSGEPRPGDWLKVVRLEHHHHHH”, with “not soluble”.
Consider “MILHGFHLSTSSHCLPFIFRHLFIFHSITALCDHMLSKFVVVEVSNSNNTMTLVEYLVTHGFDKFAVVTDLVDHPSFKYKDGSSSPESPSTTASTAAQHTPPRTAVSTPTSINTPVPPHQNKQRHSIDKIAANLSTKKVSPSSIEKQLQRTSHNPLHQLSTPHALSQLQKLLEEQHKINQMNIQKKEQERQQAEIQRILLQQANAAQINHSFGLERLTPEYDDNHHSETISKASSEDLKTEPDSTDFGLGTSDDQVRASMLHLLHPVFAPAFGMLDAENIFGAASKPTTPASKRRNTDSNGAPSKKHRWLPVNELEESRSSRGKNCGRVHCKATYKCALCGKPTTLNSTGSRWNLLRHVIMIHSDCKPYKCWDCDFTGIKSNVISHARQCRHNAEDAHDITTDEMRAEWNLRLHECFPDYVRAKERGWQPEEVTVKKEEVEESPTLVKQELTLVKQEPTFAEQLEPMAQPLV”, for which the “soluble on expression in E. coli” value is given as “not soluble”.
“RMSEQSICQARAAVMVYDDANKKWVPAGGSTGFSRVHIYHHTGNNTFRVVGRKIQDHQVVINCAIPKGLKYNQATQTFHQWRDARQVYGLNFGSKEDANVFASAMMHALEVLNS”: the “soluble on expression in E. coli” value is on record as “soluble”.
Then “MKILLIEDNQRTQEWVTQGLSEAGYVIDAVSDGRDGLYLALKDDYALIILDIMLPGMDGWQILQTLRTAKQTPVICLTARDSVDDRVRGLDSGANDYLVKPFSFSELLARVRAQLRQHHALNSTLEISGLRMDSVSHSVSRDNISITLTRKEFQLLWLLASRAGEIIPRTVIASEIWGINFDSDTNTVDVAIRRLRAKVDDPFPEKLIATIRGMGYSFVAVKK”, with “soluble”; and “SLKEFELKGINHLALVCRDFQETIDFYTITLGLKLIKNIDLPSGGKHFFIDIGNNNTLAFFWSTKAPESVPGISSVRPEAFLTGDIITAHGSMNHVAFHVPLEKLEEYKEKLVSKGVQTTPVLHHTDVPMSSFYFFDPNGILLEFAANLQSLDTLPAELKEKEAIFLKEG”, with “soluble”.
The result for “GPGSMHEDGQFLRAFLLRVLANDMQRMLATNTCATYFRNIPLEPEYDASGNRTNTPENVVMEKRLRVMDDISKLLRTYVERAEYAANKSKDINRRIYFTAEQIETGDYGALIGPRGLVHQQLEKETNCHIVLVGRGITNPLKDTNPNAASMALEDPHVRITATTEEDLQTAAERIEWILSDEPEAVEFRENNRRRMAQVDGRYDPRTWMTAAEKRKKAAAEKAAAAGGAAAGEDETKAEKGRKREREEAPVEEEDTELNEFLEDL” reads “soluble”.

The values are drawn from the DeepSol protein solubility set.
